Results taken from PMC8488656.

These substances were tested against colicin E7 (ColE7) (UniProt Q47112) (assay: ELISA).
Sequence of UniProt Q47112 (Q47112 whole entry): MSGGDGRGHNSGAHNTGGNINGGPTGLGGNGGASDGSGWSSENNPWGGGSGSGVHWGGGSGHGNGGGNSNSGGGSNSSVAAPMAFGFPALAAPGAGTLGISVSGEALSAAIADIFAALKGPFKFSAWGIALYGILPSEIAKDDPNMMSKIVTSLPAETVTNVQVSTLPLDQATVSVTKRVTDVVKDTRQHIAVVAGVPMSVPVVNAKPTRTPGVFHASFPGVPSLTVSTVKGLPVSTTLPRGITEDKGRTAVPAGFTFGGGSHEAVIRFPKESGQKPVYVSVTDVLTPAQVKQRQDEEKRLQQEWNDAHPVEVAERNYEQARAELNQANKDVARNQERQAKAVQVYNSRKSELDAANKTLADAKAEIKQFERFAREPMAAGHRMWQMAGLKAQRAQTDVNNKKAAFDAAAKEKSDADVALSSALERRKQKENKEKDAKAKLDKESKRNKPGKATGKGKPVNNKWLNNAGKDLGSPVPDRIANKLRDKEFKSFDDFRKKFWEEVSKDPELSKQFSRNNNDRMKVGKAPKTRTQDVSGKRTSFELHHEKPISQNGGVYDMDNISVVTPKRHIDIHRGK

Row | Substance | agly/ai (binding activity, glycosylated over aglycosylated variant)
1 | YebF-Im7^N31, glycosylated (from UniProt Q03708 1-87) (natural protein) | 0.55
2 | YebF-Im7^N30, glycosylated (from UniProt Q03708 1-87) (natural protein) | 1.36
3 | YebF-Im7^N58, glycosylated (from UniProt Q03708 1-87) (natural protein) | 3.44
4 | YebF-Im7^N49, glycosylated (from UniProt Q03708 1-87) (natural protein) | 1.91
